Data as given in publication PMC7349057.

Experiments:
[1] = immunocytochemistry of internalised VEGFR2, BSA vs VEGF; conditions: glycan lost; control: ∆21-121 EMCN
[2] = cell surface biotinylation, VEGFR2 western blot, hEMCN knockdown HRECs; conditions: glycan lost; control: ∆21-121 EMCN

B1: mouse EMCN (mEMCN, endomucin): N-Mut (protein)
parent chain: MRLLQATVLFFLLSNSLCHSEDGKDVQNDSIPTPAETSTTKASVTIPGIVSVTNPNKPADGTPPEGTTKSDVSQTSLVTTINSLTTPKHEVGTTTEGPLRNESSTMKITVPNTPTSNANSTLPGSQNKTENQSSIRTTEISVTTQLLDALPKITATSSASLTTAHTMSLLQDTEDRKIATTPSTTPSYSSIILPVVIALVVITLLVFTLVGLYRICWKRDPGTPENGNDQPQSDKESVKLLTVKTISHESGEHSAQGKTKN
other: rescue of VEGF-induced VEGFR2 internalisation, other: VEGFR2-positive pixels per cell [1]: abolishes
other: rescue of VEGF-induced VEGFR2 internalisation [2]: abolishes
